Measurements taken from US20240316011A1, “ANTI-FIBROSIS PHARMACEUTICAL COMPOSITION AND APPLICATION THEREOF” (West China Second University Hospital, priority 2020, published 2024).

Legend:
TIMP1 = conditions: old mice after PNX, PH, or kidney I/R
Excerpt: Macrophages/monocytes were isolated from indicated mouse tissues via antibody-coated beads isolation after PNX, PH, or Kid I/R. Expression of genes was examined by quantitative PCR.

NRP1 = experiment: HDAC and DNMT inhibitor treatment of old mice: NRP1 protein in isolated ECs (immunoblot); type: in vivo, mouse; conditions: old mice after PNX; 10 mg/kg VPA, 0.5 mg/kg AZA
Method: Injection of growth factor and treatment of HDAC and DNMT inhibitors. Three months old (young) mice were subjected to PNX, PH or kidney I/R and injected with 20 μg/kg […] or equal molar amounts of PDGF-BB, HGF, VEGF165, or TGFβ1 every three days. 3-mon Nrp1^+/+, Nrp1^iΔEC/iΔEC, or […] mice were also treated with […]. To test the regulation of […] and NRP1, old mice were treated with 10 mg/kg HDAC inhibitor VPA, 0.5 mg/kg DNMT1 inhibitor azacitidine (AZA), or combinatorial treatment of VPA and AZA (VPA+AZA). Expression of EPCR and NRP1 proteins in isolated lung, liver, and kidney ECs were tested by immunoblot, and […] amounts in homogenized organs was tested by ELISA.

[1] = tested on: Lung and liver fibroblast cells; experiment: TIMP1 treatment of lung fibroblast and liver stellate cell (immunoblot); type: cell-based, mouse
Method: TIMP1 treatment of lung fibroblast and liver stellate cell. Lung and liver fibroblast cells were from ScienceCell Research Laboratories and cultured as described previously (Reference 8). Lung and liver fibroblast cells were treated with 20 ng/ml TIMP1, 10 ng/ml TGFβ1, or 20 ng/ml TIMP1 and 10 ng/ml TGFβ1. To identify the role of β1 integrin in TIMP1-mediated fibroblast activation, p1 integrin was silenced in fibroblast cells by shRNA. After treatment, lung and liver fibroblast cells were retrieved for analysis of Smad2 phosphorylation and SMA protein expression by immunoblot. Smad2 phosphorylation and SMA protein expression were quantified by densitometry of immunoblot.

kidney fibrosis = experiment: Folic acid kidney fibrosis model; type: in vivo, mouse; conditions: Nrp1 iΔEC/iΔEC mice after chronic injury
Method: Animal Care and Mouse lines used. […] This mouse line was crossed with floxed Nrp1 […] mice to generate […] and control mice. […] Mouse kidney regeneration and repair models. Mouse kidney I/R model was adopted from described (Reference 72). After mice were anesthetized, ischemia was induced by the retroperitoneal approach on both kidneys for 30 min. Sham operation was carried out with exposure of kidneys without inducing ischemia. To generate kidney fibrosis, mice were given a single i.p. injection of folic acid at the dose of 250 mg/kg, as previously described (Reference 74). […] At indicated time, serum creatinine concentration was measured by the picric acid method, and tissue morphology and fibrosis were analyzed by Sirius red and hematoxylin co-stainings. Tissue fibrosis determination. Lung, liver and kidney fibrotic responses were determined at the indicated time after injury. Tissues were homogenized in tissue lysis buffer. Immunoblot of Collagen I was performed with the obtained tissue lysates. Protein level of Collagen I was compared between different groups. […] Sirius red-positive fibrotic parenchyma was determined from five random fields in each section and quantified. Hydroxyproline amount was quantified in the liver and lung to determine the extent of fibrosis.

mouse liver fibrosis = experiment: CCl4 liver injury / fibrosis model; type: in vivo; conditions: Nrp1 iΔEC/iΔEC mice after chronic injury
Method: Animal Care and Mouse lines used.
Mouse liver regeneration and repair models. Mouse liver regeneration was induced by PH.
Tissue fibrosis determination. Lung, liver and kidney fibrotic responses were determined at the indicated time after injury. Tissues were homogenized in tissue lysis buffer. Immunoblot of Collagen I was performed with the obtained tissue lysates. Protein level of Collagen I was compared between different groups. Sirius red and hematoxylin stainings were performed on paraffin-embedded tissue sections to determine the tissue morphology and Collagen deposition and distribution (Reference 8). Sirius red-positive fibrotic parenchyma was determined from five random fields in each section and quantified. Hydroxyproline amount was quantified in the liver and lung to determine the extent of fibrosis.

EPCR [2] = experiment: Growth factor injection after PNX: EPCR / HIF2α in lung ECs; type: in vivo, mouse
Method: Mouse lung regeneration and repair models. To test mouse lung alveolar regeneration and repair, models of left lung PNX (Reference 19) and lung injury (Reference 7) were adapted. Mice were anesthetized with a cocktail of ketamine (100 mg/kg) and xylazine (10 mg/kg). PNX was carried out when left lung lobe was resected with a suture tied around the hilum. PCECs were purified from 20 months (designated as old) and 3 months old (designated as young) mice after PNX, and total RNA was isolated and subjected to transcriptome analysis as described. Intratracheal injection of 2 U/kg bleomycin was employed to induce lung injury. To block EPCR signaling, mice were intraperitoneally injected with EPCR neutralizing antibody 1560 at 1.5 mg/kg (Reference 46) after PNX and Bleo injection. Young Nrp1^iΔEC/iΔEC Hif2a^iΔEC/iΔEC, and control mice were also administered with 20 μg/kg mouse P1GF or same molar amounts of HGF and PDGF-BB (Peprotech) after PNX and PH. In addition, repeated intratracheal hydrochloric acid injection models were employed to induce lung injury (Reference 76). Orotracheal instillation was performed in anesthetized mice, and 20 μl of an iso-osmolar solution of 0.1 M hydrochloric acid (pH 1.0) was instilled. […] After recovery, mice were transferred to ventilated cages with access to food and water. […] At the described time points, pulmonary function and oxygen tension in arterial blood of treated mice were measured as previously described (Reference 7). To measure cell proliferation, 100 mg/kg 5-ethynyl-2′-deoxyuridine (EDU) was i.p. injected into mice one hour before sacrificing, and EDU incorporation was measured by EDU cell proliferation kit. Mice were i.p. supplemented with 1 ml PBS after all surgery procedures.
Injection of growth factor and treatment of HDAC and DNMT inhibitors. Three months old (young) mice were subjected to PNX, PH or kidney I/R and injected with 20 μg/kg P1GF or equal molar amounts of PDGF-BB, HGF, VEGF165, or TGFβ1 every three days. 3-mon Nrp1^+/+, Nrp1^iΔEC/iΔEC, or Hif2a^iΔEC/iΔEC mice were also treated with P1GF. To test the regulation of P1GF and NRP1, old mice were treated with 10 mg/kg HDAC inhibitor VPA, 0.5 mg/kg DNMT1 inhibitor azacitidine (AZA), or combinatorial treatment of VPA and AZA (VPA+AZA). Expression of EPCR and NRP1 proteins in isolated lung, liver, and kidney ECs were tested by immunoblot, and P1GF amounts in homogenized organs was tested by ELISA.

EPCR [3] = experiment: Growth factor injection after PH: EPCR in liver ECs; type: in vivo, mouse; conditions: liver lacking endothelial Nrp1 or Hif2a
Method: Mouse lung regeneration and repair models. To test mouse lung alveolar regeneration and repair, models of left lung PNX (Reference 19) and lung injury (Reference 7) were adapted. Mice were anesthetized with a cocktail of ketamine (100 mg/kg) and xylazine (10 mg/kg). PNX was carried out when left lung lobe was resected with a suture tied around the hilum. PCECs were purified from 20 months (designated as old) and 3 months old (designated as young) mice after PNX, and total RNA was isolated and subjected to transcriptome analysis as described. Intratracheal injection of 2 U/kg bleomycin was employed to induce lung injury. To block EPCR signaling, mice were intraperitoneally injected with EPCR neutralizing antibody 1560 at 1.5 mg/kg (Reference 46) after PNX and Bleo injection. Young Nrp1^iΔEC/iΔEC Hif2a^iΔEC/iΔEC, and control mice were also administered with 20 μg/kg mouse P1GF or same molar amounts of HGF and PDGF-BB (Peprotech) after PNX and PH. […] At the described time points, pulmonary function and oxygen tension in arterial blood of treated mice were measured as previously described (Reference 7). To measure cell proliferation, 100 mg/kg 5-ethynyl-2′-deoxyuridine (EDU) was i.p. injected into mice one hour before sacrificing, and EDU incorporation was measured by EDU cell proliferation kit. […]

[4] = 20 ng/ml TIMP1, co-treatment with 10 ng/ml TGF-β1

With `c1cc(CN2CCCNCCNCCCNCC2)ccc1CN1CCCNCCNCCCNCC1` [AMD3100] the “TIMP1 upregulation in the macrophages of old organs” value (TIMP1) was “attenuated”.

With `CCCC(CCC)C(=O)O` [VPA, valproic acid] the “expression of NRP1 in lung ECs” value (NRP1) was “reduced”.

“TIMP1: recombinant tissue inhibitor of metalloproteinases 1 incubated with fibroblast cells” was tested, and the “phosphorylation of Smad2” value ([1]; 20 ng/ml TIMP1) was “augmented”, the “smooth muscle cell actin (SMA) protein expression” value ([1]; 20 ng/ml TIMP1) was “augmented” and the “phosphorylation of Smad2” value [1, 4] was “further enhanced”. The “smooth muscle cell actin (SMA) protein expression” value [1, 4] was “further enhanced”.

B1: activated protein C (protein, UniProt P04070 200-461, looked up)
Vitamin K-dependent protein C …: DTEDQEDQVDPRLIDGKMTRRGDSPWQVVLLDSKKKLACGAVLIHPSWVLTAAHCMDESKKLLVRLGEYDLRRWEKWELDLDIKEVFVHPNYSKSTTDNDIALLHLAQPATLSQTIVPICLPDSGLAERELNQAGQETLVTGWGYHSSREKEAKRNRTFVLNFIKIPVVPHNECSEVMSNMVSENMLCAGILGDRQDACEGDSGGPMVASFHGTWFLVGLVSWGEGCGLLHNYGVYTKVSRYLDWIHGHIRDKEAPQKSWAP
modifications: Vitamin K-dependent protein C heavy chain activated two-chain form
B1 was tested, and the “EPCR expression in kidney ECs” value (kidney fibrosis) was “enhanced”, the “HIF2A induction in kidney ECs” value (kidney fibrosis) was “suppressed” and the “EPCR expression in liver ECs” value (mouse liver fibrosis) was “enhanced”. For the same molecule, the “HIF2A induction in liver ECs” value (mouse liver fibrosis) was “suppressed”.

B2: P1GF: placenta growth factor, NRP1 ligand, injected into mice (protein, UniProt P49763 19-221, looked up)
Placenta growth factor: LPAVPPQQWALSAGNGSSEVEVVPFQEVWGRSYCRALERLVDVVSEYPSEVEHMFSPSCVSLLRCTGCCGDENLHCVPVETANVTMQLLKIRSGDRPSYVELTFSQHVRCECRHSPGRQSPDMPGDFRADAPSFLPPRRSLPMLFRMEWGCALTGSQSAVWPSSPVPEEIPRMHPGRNGKKQQRKPLREKMKPERCGDAVPRR
With B2 the “effect of P1GF on EPCR / HIF2a” value (EPCR [2]; Nrp1 iΔEC/iΔEC mice after PNX) was “abrogated”, the “EPCR in lung ECs” value (EPCR [2]; young Hif2a iΔEC/iΔEC mice after PNX) was “did not suppress” and the “HIF2a in lung ECs” value (EPCR [2]; young mice after PNX, 20 μg/kg) was “enhanced”. For the same molecule, the “EPCR expression in lung ECs” value (EPCR [2]; young mice after PNX, 20 μg/kg or equal molar amounts) was “suppressed” and the “EPCR upregulation in liver ECs” value (EPCR [3]) was “did not prohibit”.
